From doi:10.1101/2023.08.30.555640 (bioRxiv, 2023) come the findings set out here.

The assay has as its target Wildtype human ubiquitin (human, UniProt P0CG47 1-76). In words: NMR titration.

On to PEVRFQQQLEQLNAMGFLNREANLQALIATGGDINAAIERLLGS (domain or fragment) [human ubiquilin2 UBA domain (residues 578 to 621)], for which the binding result is “binds”.
